Data set [1] addresses T1, VapC-3 toxin of Mtb VapBC-3 (Rv0300-Rv0301) (Mycobacterium tuberculosis, UniProt P9WFB9 2-141).
T1 sequence: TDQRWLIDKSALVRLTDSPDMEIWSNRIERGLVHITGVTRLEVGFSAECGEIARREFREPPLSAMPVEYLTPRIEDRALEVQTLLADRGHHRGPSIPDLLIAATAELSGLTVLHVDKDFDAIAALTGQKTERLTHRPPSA
As to the kind of experiment: crystal structure.

Data set [2] deals with the molecule itself. The experiment in a line: crystal structure.
The data set “dynamic light scattering” concerns the molecule itself. The experiment in a line: dynamic light scattering.
Data set [3] concerns the molecule itself. As to the kind of experiment: crystal structure. The source holds these as a separate data set.

B1: VapB-3 antitoxin of Mtb VapBC-3 (Rv0300-Rv0301) (natural protein)
chain: MSDVLIRDIPDDVLASLDAIAARLGLSRTEYIRRRLAQDAQTARVTVTAADLRRLRGAVAGLGDPELMRQAWR
Turning to B1, the binding result (in data set [1]; in “crystal structure [2]”) was “binds” each time.

B2: Rv0812, putative Mtb 4-amino-4-deoxychorismate (ADC) lyase (PabC) (enzyme)
chain: MVVTLDGEILQPGMPLLHADDLAAVRGDGVFETLLVRDGRACLVEAHLQRLTQSARLMDLPEPDLPRWRRAVEVATQRWVASTADEGALRLIYSRGREGGSAPTAYVMVSPVPARVIGARRDGVSAITLDRGLPADGGDAMPWLIASAKTLSYAVNMAVLRHAARQGAGDVIFVSTDGYVLEGPRSTVVIATDGDQGGGNPCLLTPPPWYPILRGTTQQALFEVARAKGYDCDYRALRVADLFDSQGIWLVSSMTLAARVHTLDGRRLPRTPIAEVFAELVDAAIVSDR
By stoichiometry N is commonly meant a count of units in the complex or per binding partner. Take B2: the “stoichiometry N” value in the data set “dynamic light scattering” came out at 2.

B3: Mtb fumarase (enzyme)
chain: MAVDADSANYRIEHDTMGEVRVPAKALWRAQTQRAVENFPISGRGLERTQIRALGLLKGACAQVNSDLGLLAPEKADAIIAAAAEIADGQHDDQFPIDVFQTGSGTSSNMNTNEVIASIAAKGGVTLHPNDDVNMSQSSNDTFPTATHIAATEAAVAHLIPALQQLHDALAAKALDWHTVVKSGRTHLMDAVPVTLGQEFSGYARQIEAGIERVRACLPRLGELAIGGTAVGTGLNAPDDFGVRVVAVLVAQTGLSELRTAANSFEAQAARDGLVEASGALRTIAVSLTKIANDIRWMGSGPLTGLAEIQLPDLQPGSSIMPGKVNPVLPEAVTQVAAQVIGNDAAIAWGGANGAFELNVYIPMMARNILESFKLLTNVSRLFAQRCIAGLTANVEHLRRLAESSPSIVTPLNSAIGYEEAAAVAKQALKERKTIRQTVIDRGLIGDRLSIEDLDRRLDVLAMAKAEQLDSDRL
As for B3, the “stoichiometry N” value in the data set “crystal structure [3]” was 4.

The values above are taken from article PMC3310434 (Tuberculosis (Edinburgh, Scotland), 2011).
